According to paper PMC4127255:

How the values were obtained:
[1] = biological target: acetylcholine-binding protein from Aplysia californica (Ac-AChBP) (Aplysia californica); test: non-reduced SDS-PAGE
[2] = biological target: acetylcholine-binding protein from Aplysia californica (Ac-AChBP) (Aplysia californica); test: SEC; […]; 50 mM NaCl, 50 mM Tris pH 8.0, 0.5 mL/min, […]

acetylcholine-binding protein from Aplysia californica (Ac-AChBP) (natural protein)
stoichiometry N [1]: 5 | stoichiometry N [2]: 5
